Laboratory results taken from PMC10083542.

Columns and labels:
Assay in all cases: EMSA
[1] = system: Dcp2 H237A (Saccharomyces cerevisiae); details: pH 5.8; EMSA: 10 nM Alexa Fluor 647 RPL41A RNA, 300 mM KOAc, 10 mM MES pH 7 or 5.8, 5 mM BME; temperature not given in material
[2] = system: T1, Dcp2 1-300 (Saccharomyces cerevisiae); details: EMSA: 10 nM Alexa Fluor 647 RPL41A RNA, 300 mM KOAc, 10 mM MES pH 7 or 5.8, 5 mM BME; temperature not given in material
T1 sequence: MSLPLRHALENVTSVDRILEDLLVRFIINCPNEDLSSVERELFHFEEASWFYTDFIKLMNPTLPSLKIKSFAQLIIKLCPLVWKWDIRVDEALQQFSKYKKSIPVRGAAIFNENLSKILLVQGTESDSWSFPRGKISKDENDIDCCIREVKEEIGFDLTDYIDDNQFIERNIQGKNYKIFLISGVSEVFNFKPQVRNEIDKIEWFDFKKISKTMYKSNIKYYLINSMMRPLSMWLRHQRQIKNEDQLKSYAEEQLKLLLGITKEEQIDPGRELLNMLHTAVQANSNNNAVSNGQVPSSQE

[3] = system: T2, Dcp2 (Saccharomyces cerevisiae); details: EMSA: 10 nM Alexa Fluor 647 RPL41A RNA, 300 mM KOAc, 10 mM MES pH 7 or 5.8, 5 mM BME, temperature not given in material
T2 sequence: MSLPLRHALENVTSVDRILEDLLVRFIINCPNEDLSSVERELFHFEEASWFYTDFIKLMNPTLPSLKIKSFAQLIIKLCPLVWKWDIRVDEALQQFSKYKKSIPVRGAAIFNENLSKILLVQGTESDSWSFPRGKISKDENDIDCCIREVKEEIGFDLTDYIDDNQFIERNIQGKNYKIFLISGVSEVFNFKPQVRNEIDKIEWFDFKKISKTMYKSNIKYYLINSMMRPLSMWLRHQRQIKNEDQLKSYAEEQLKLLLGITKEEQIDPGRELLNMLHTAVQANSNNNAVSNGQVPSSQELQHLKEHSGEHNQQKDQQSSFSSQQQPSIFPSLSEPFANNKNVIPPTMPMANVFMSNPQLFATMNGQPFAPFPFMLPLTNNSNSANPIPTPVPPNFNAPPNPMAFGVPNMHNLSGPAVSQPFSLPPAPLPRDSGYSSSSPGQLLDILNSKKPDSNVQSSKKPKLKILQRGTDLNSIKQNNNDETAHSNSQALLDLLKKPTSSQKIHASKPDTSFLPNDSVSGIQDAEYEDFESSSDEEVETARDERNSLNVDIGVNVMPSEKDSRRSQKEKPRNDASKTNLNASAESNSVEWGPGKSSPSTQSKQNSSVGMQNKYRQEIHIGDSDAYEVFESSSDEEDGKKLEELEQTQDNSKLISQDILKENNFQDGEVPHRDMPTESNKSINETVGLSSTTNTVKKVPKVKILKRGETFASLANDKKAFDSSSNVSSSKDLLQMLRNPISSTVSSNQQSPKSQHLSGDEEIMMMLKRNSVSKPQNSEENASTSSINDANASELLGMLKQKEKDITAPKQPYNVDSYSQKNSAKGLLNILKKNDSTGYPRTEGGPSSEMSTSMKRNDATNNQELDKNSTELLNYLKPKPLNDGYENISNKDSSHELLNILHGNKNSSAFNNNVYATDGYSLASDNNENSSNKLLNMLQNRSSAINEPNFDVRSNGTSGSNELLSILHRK

[4] = system: T3, Dcp1 (Saccharomyces cerevisiae); details: EMSA: 10 nM Alexa Fluor 647 RPL41A RNA, 300 mM KOAc, 10 mM MES pH 7 or 5.8, 5 mM BME; temperature not given in material
T3 sequence: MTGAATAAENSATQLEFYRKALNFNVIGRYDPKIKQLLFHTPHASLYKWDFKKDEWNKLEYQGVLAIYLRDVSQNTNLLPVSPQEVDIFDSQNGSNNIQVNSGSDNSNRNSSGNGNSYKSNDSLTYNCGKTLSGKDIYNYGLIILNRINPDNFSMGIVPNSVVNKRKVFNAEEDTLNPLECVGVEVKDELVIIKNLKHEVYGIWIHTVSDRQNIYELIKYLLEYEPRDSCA

Which results are given for RPL41A RNA (60 nt)?
binding signal (fold lower affinity than wild type) [1]: 2; Kd [2]: > 20 µM; binding signal (fold tighter at pH 5.8 than at pH 7) [3]: > 16; Kd [4]: > 20 µM
